{
  "source": "patent US20100196951",
  "target": "MazE antitoxin with the Thrombin-recognition sequence LVPRGS in place of VDGK at positions 38 to 41 (UniProt P0AE72)",
  "data": [
    {"substance": "Biothinylated Thrombin (Novagen)", "values": [
      {"measurement": "removal of the MazE band on SDS-PAGE after overnight Thrombin treatment (0.01 to 0.08 units)", "result": "the residual MazE protein was successfully removed from the purified MazF sample by Thrombin treatment (lanes 2 to 5)"}
    ]}
  ]
}
